Here are results for one molecule from US20160068605A1 (Janssen / Centocor, published 2016).

The target of assay [1] is T1, cyno CD123 ECD displayed on pDisplay-transfected cells (cynomolgus monkey).
T1 construct: ECD anchored on the surface of stably transfected HEK293 cells; also called cynoCD123 SP1 cells; cynoCD123 cells
T1 chain: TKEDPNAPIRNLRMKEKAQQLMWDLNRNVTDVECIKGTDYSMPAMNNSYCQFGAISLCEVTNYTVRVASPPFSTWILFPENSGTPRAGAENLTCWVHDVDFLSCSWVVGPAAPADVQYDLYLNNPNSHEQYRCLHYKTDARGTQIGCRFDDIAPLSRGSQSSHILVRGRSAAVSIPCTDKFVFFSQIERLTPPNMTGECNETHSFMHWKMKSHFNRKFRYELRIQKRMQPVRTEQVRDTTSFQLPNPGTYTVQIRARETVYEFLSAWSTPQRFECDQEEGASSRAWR
Kind of assay: MSD-CAT on pDisplay cells. Here is the method: After equilibration the plate was centrifuged for 5 min ˜1000 rpm and free anti-CD3 detected on the supernatant. […] The assay buffer was removed without washing and 50 μL/well of 0.7 μg/mL of biotinylated antigen in assay buffer were added to MSD plates and incubated overnight (˜16 hr at 4° C.). After overnight incubation, the plates were blocked by adding 150 μL/well of assay buffer without removing coating antigen, incubated for ˜1 hr at ambient temperature and washed 5 times with wash buffer (assay buffer without BSA). 50 μL/well of the supernantants from samples plate were transferred to antigen-coated plates, incubated for 60 min, and then washed three times with wash Buffer. After this 50 μL per well of ruthenium labeled detection antibody(anti-human H+L) were added and incubated for 1 hr. After 1 hr the plates were washed and 150 μL of MSD Read Buffer (prepared by diluting 1:4 of stock into d. H₂O) were added per well. The plates were read immediately on the MSD Sector Imager 6000 Reader for luminescence levels. ECL signal detected by MSD was expressed in term of % free antibody in the mixture and the data was analyzed to determine affinity using a user defined equation (derived from the law of mass action) introduced in Prism software.

Assay [2] addresses T2, human CD123 SP1 ECD displayed on pDisplay-transfected cells (human, UniProt P26951 20-305).
T2 construct: ECD anchored on the surface of stably transfected HEK293 cells by the PDGFR transmembrane domain; also called hCD123 SP1 cells; hCD123 cells
T2 sequence: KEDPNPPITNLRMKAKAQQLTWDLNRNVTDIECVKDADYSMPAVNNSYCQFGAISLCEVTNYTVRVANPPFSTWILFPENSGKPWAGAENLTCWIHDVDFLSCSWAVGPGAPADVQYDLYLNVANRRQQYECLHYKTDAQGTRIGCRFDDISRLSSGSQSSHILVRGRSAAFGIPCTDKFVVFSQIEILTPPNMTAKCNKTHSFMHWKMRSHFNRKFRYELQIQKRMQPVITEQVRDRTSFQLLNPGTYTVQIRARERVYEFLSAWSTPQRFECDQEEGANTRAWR
Kind of assay: MSD-CAT on pDisplay cells. As to the method: (§1) The MSD-CAT was developed in-house as a label-free method to determine affinity using intact cells in a high throughput format. […] Cell lines used were human pDisplay CD123SP1 and pDisplay CD123SP2. […] These samples were prepared in DMEM Glutamax medium containing 0.05% Azide, 1% BSA, 3 mM EDTA. […] After equilibration the plate was centrifuged for 5 minutes ˜1000 rpm and free anti-CD3 detected on the supernatant. […] The assay buffer was removed without washing and 50 uL/well of 0.7 ug/mL of biotinylated antigen in assay buffer were added to MSD plates and incubated overnight (˜16 hours at 4° C.).

Assay [3] has as its target T3, human CD123 SP2 ECD displayed on pDisplay-transfected cells (human, UniProt P26951 101-305).
T3 construct: ECD anchored on the surface of stably transfected HEK293 cells; also called hCD123 SP2 cells; pDisplay CD123SP2
T3 sequence: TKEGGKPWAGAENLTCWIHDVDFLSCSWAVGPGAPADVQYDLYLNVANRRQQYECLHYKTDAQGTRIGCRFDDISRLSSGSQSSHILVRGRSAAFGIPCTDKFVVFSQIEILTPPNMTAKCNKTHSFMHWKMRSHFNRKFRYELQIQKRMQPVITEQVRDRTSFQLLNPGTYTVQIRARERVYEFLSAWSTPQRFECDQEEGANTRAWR
Briefly: MSD-CAT on pDisplay cells. Here is the method:
as §1

Assay [4] has as its target T4, Recombinant human CD123 SP1 ECD-His tag protein (human, UniProt P26951 20-305).
T4 construct: bought from R&D Systems (#301-R3/CF); biotinylated for some assays; also called rhCD123 SP1; huCD123 ECD SP1
T4 sequence: T2 sequence
Kind of assay: SPR Biacore 3000, captured mAb. Here is the method: Kinetic studies were performed at 25° C. using a Biacore 3000 (BIAcore, Inc., now part of GE Healthcare). […] Sheep anti-Human Fd specific antibody (The binding site Prod # PC075) was covalently attached to two flow cells (normally 3 and 4) of the carboxymethyl dextran coated gold surfaces (CM-5 Chip, Biacore). The carboxymethyl groups of dextran were activated with N-Ethyl-N′-(3-Dimethylaminopropyl)carbodiimide (EDC) and N-hydroxysuccinimide (NHS). The antibodies were coupled at pH 4.5 in 10 mM sodium acetate. Any remaining reactive sites on the surface were blocked by reaction with ethanolamine. […] Association data was collected for 2 min followed by 10 min of dissociation. The surface was regenerated with 30 μL of 100 mM H3PO4 100 μL/min. All samples were prepared in D-PBS containing 3 mM EDTA and 0.005% surfactant P20. Data reported is the difference in SPR signal between the flow cell containing the captured antibody or Fab and a reference cell without captured antibody or Fab. Additional instrumental contributions to the signal were removed by subtraction of the data from the blank injection from the reference-subtracted signal. Data were performed in triplicate and analyzed by fitting association and dissociation phases at all concentrations (global fit) with a 1:1 binding model using the BIAevaluation software (BIAcore, Inc.). […] Data presented is an average.
On the technique in general: In SPR one partner is held on a chip, and binding of the other changes the refractive index at the surface.

For assay [5], the target named is T1, cyno CD123 ECD displayed on …. Kind of assay: MSD-CAT, cynoCD123 cells, assay-2; apparent KD (bivalent).
Assay [6] addresses T2, human CD123 SP1 ECD displayed on …. Kind of assay: MSD-CAT, hCD123 cells, assay-2; apparent KD (bivalent).
The target is the same in assay [7]. Kind of assay: MSD-CAT, hCD123 cells, assay-1; apparent KD (bivalent).

As usually defined, the koff is the rate constant with which the complex falls apart. As usually defined, the kon is the second-order rate constant of association.

B1: I3RB18 (antibody, IgG1, V domains shown)
VH: EVQLVQSGAEVKKPGESLKISCKGSGYSFTSYWISWVRQMPGKGLEWMGIIDPSDSDTRYSPSFQGQVTISADKSISTAYLQWSSLKASDTAMYYCARGDGSTDLDYWGQGTLVTVSS
VL: EIVLTQSPGTLSLSPGERATLSCRASQSVSSSYLAWYQQKPGQAPRLLIYGASSRATGIPDRFSGSGSGTDFTLTISRLEPEDFAVYYCQQDYGFPWTFGQGTKVEIK
notes: IgG1; also called 13RB18; mAb I3RB18
For B1, the “fold weaker than to human CD123 SP1” value in assay [1] was greater than 10 fold. The Kd is 0.047 nM in assay [2]; 0.049 nM in assay [3]; 1.2 nM in assay [4]; greater than 11.9 nM in assay [5]; 0.343 nM in assay [6]; 0.055 nM in assay [7]. Besides, the koff in assay [4] was determined as 0.000808 s⁻¹. Further, the kon in assay [4] was determined as 688000 M⁻¹ s⁻¹.
